Each block holds one molecule with its values, some of them ahead of it.
Tests used:
[1] = system: Jurkat T cells (Tag-72 positive); assay: Cancer cell selectivity of hE11 BsAbs (surface immunofluorescence); type: cell-based, human; conditions: culture medium, FIG. 10
Protocol: PEG2×TAG72 or control PEG2×DNS BsAbs (10 μg/mL) were incubated with A-375 (TAG72−), MCF-7 (TAG72+), Jurkat (TAG72+) or OVCAR-3 (TAG72+) cells at 4° C. for 30 min followed by FITC-labeled goat anti-human immunoglobulin second antibody (2 μg/mL) (Jackson ImmunoResearch Laboratories, West Grove, Pa.) or FITC-labeled 4arm-PEG (2 μg/mL). Tumor-specific targeting of PEGylated compounds was also examined by staining A431 (EGFR^high), and Raji (CD19^high) cell lines with 10 μg/mL of h6.3Fab×EGFR or h6.3Fab×CD19 BsAbs in PBS containing 0.05% BSA (staining buffer) at 4° C. for 30 min. The cells were washed with cold PBS for 3 times. […] After washing with cold PBS, the surface fluorescence of 10^4 viable cells was measured by FACScaliber flow cytometer (Becton Dickinson, Mountain View, Calif., USA) then analyzed with Flowjo (Tree Star Inc., San Carlos, Calif., USA). […]
The binding specificity of monovalent BsAbs with their target proteins was measured by collecting the culture medium of BsAbs producing cells, adding the collected medium to cells that expressed the target protein, then determining the binding by ELSA. After washing the cells, the bound BsAbs were detected by FITC-labeled goat anti-human immunoglobulin second antibody. […]

[2] = system: A431 (EGFR+) tumor cells; assay: Confocal live cell imaging of PEG-Qdot655 internalization; type: cell-based, human; conditions: 10 μg/mL BsAb, 16 nM PEG-Qdot655
Protocol: The coverslips (30 mm) in POC chambers were coated with 10 μg/mL poly-L-lysine in PBS for 30 min at room temperature. The coverslips were washed twice with PBS and then 5×10^4 cells/chamber of A431 (EGFR+) tumor cells were seeded on the coverslips. A431 cells were incubated with 10 μg/mL of h6.3Fab×EGFR or h6.3Fab×CD19 BsAbs at 37° C. for 30 min containing 1 μg/mL of Hoechst 33342 and 100 nM of LysoTracker® Red DND-99 (Invitrogen Life Technologies Corporation, NY, USA). The cells were washed with culture medium for 2 times. Cell imaging was recorded with an Axiovert 200M Confocal Microscope (Carl Ziess Inc., Thornwood, N.Y.) after adding 16 nM of PEG-Qdot655 solution (Invitrogen Life Technologies Corporation, NY, USA).
To verify whether BsAb-targeted substance could be internalized by antigen-positive cancer cells, live cell imaging was performed by staining cells with lysosome tracker and BsAbs, followed by the addition and incubation of PEG-Qdot655.

[3] = system: Raji cells (CD19+); assay: Flow cytometry: BsAb-directed PEG-liposome Texas Red / PEG-Qdot655 on cells; type: cell-based; conditions: PEG-liposome Texas Red and PEG-Qdot655, 10 μg/mL BsAb
Protocol: PEG2×TAG72 or control PEG2×DNS BsAbs (10 μg/mL) were incubated with A-375 (TAG72−), MCF-7 (TAG72+), Jurkat (TAG72+) or OVCAR-3 (TAG72+) cells at 4° C. for 30 min followed by FITC-labeled goat anti-human immunoglobulin second antibody (2 μg/mL) (Jackson ImmunoResearch Laboratories, West Grove, Pa.) or FITC-labeled 4arm-PEG (2 μg/mL). Tumor-specific targeting of PEGylated compounds was also examined by staining A431 (EGFR^high), and Raji (CD19^high) cell lines with 10 μg/mL of h6.3Fab×EGFR or h6.3Fab×CD19 BsAbs in PBS containing 0.05% BSA (staining buffer) at 4° C. for 30 min. The cells were washed with cold PBS for 3 times. PEG-Qdot655 (8 nM) (Invitrogen, Grand Island, N.Y.) or PEG-liposomal Texas-Red (100 nm size, 50 μM, lipid conc.) (FormuMax Scientific, Palo Alto, Calif.) in staining buffer was added to cells for 30 min at 4° C. Raji cells (CD19+) or SKBR3 cells (HER2+) were incubated with 10 μg/ml h15-2b-knob/BU12-hole, h15-2b-knob/anti-Her2-hole, h6-3-knob/BU12-hole or h6-3-knob/anti-Her2-hole BsAbs, washed and incubated with 0.25 μg/ml FITC-labeled goat anti-human IgG or 10 nM methoxy-PEG Qdot 655 at 4° C. for 30 min. After washing with cold PBS, the surface fluorescence of 10^4 viable cells was measured by FACScaliber flow cytometer (Becton Dickinson, Mountain View, Calif., USA) then analyzed with Flowjo (Tree Star Inc., San Carlos, Calif., USA). […]

[4] = ELISA PEG binding of h6.3 BsAbs; conditions: FIG. 14A
Protocol: […] The plates were washed with PBS-T (PBS containing 0.05% Tween-20) three times. Rabbit anti-6×His (2 μg/mL) supplemented with HRP-conjugated goat anti-rabbit (2 μg/mL) or HRP-conjugated goat Ig anti human IgG Fab (2 μg/mL) (Jackson ImmunoResearch Laboratories, West Grove, Pa.) in 50 μL dilution buffer were added for 1 h at room temperature. The plates were washed with PBS-T (PBS containing 0.05% Tween-20) three times and with PBS two times. Bound peroxidase activity was measured by adding 150 μL/well ABTS substrate solution (BioLegend, San Diego, Calif.) for 30 min at room temperature. The absorbance (405 nm) of wells was measured in a microplate reader (Molecular Device, Menlo Park, Calif.).
The PEG-binding kinetics of h6-3Fab×EGFR and h6.3Fab×CD19 BsAbs were verified by Microscale Thermophoresis (MST) (FIGS. 14D and 14E).

[5] = target: BSA (Bos taurus, UniProt P02769); assay: ELISA antigen binding of BsAbs, control protein
Protocol: (§1) The anti-PEG binding specificity of BsAbs was measured by adding graded concentrations of PEG2×TAG72, PEG2×DNS, hCC49 scFv, h6.3Fab×EGFR or h6.3Fab×CD19 in 50 μL 2% skim milk to the mucin, BSA-PEG5000, NH2-PEG3k-NH2 or BSA coated plates at RT for 1 h. The plates were washed with PBS-T (PBS containing 0.05% Tween-20) three times. Rabbit anti-6×His (2 μg/mL) supplemented with HRP-conjugated goat anti-rabbit (2 μg/mL) or HRP-conjugated goat Ig anti human IgG Fab (2 μg/mL) (Jackson ImmunoResearch Laboratories, West Grove, Pa.) in 50 μL dilution buffer were added for 1 h at room temperature. The plates were washed with PBS-T (PBS containing 0.05% Tween-20) three times and with PBS two times. Bound peroxidase activity was measured by adding 150 μL/well ABTS substrate solution (BioLegend, San Diego, Calif.) for 30 min at room temperature. The absorbance (405 nm) of wells was measured in a microplate reader (Molecular Device, Menlo Park, Calif.).
Binding of the BsAbs was detected by ELISA. Microtiter plates were first coated with antigens and then PEG2×TAG72, PEG2×DNS BsAbs or hCC49 (anti-TAG72) single chain antibody was added. After the plates were extensively washed to remove unbound antibodies, the remaining bound antibodies in each well were detected with HRP-conjugated secondary antibody. […] In sum, PEG2×TAG72 anti-PEG (hE11) BsAb of example 1.2 can bind both PEG and tumor antigens. […]

[6] = system: Raji (CD19+) cells; assay: Cytotoxicity assay of Doxisome with h6.3 BsAbs (3H-thymidine); type: cell-based; conditions: compared with Doxisome alone
Protocol: A431 (EGFR^high) and Raji (CD19^high) cells (5000 cells/well) were seeded in 96-well plates overnight. Fifteen microgram per mL of h6.3Fab×EGFR or h6.3Fab×CD19 BsAbs were added to the cells for 30 min at 37° C. and followed by graded concentrations of free doxorubicin or PEGylated liposomal doxorubicin (Doxisome®, Taiwan Liposome Company Ltd., Taipei, Taiwan) was added to the cells in triplicate at 37° C. for 4 h. The cells were subsequently washed once and incubated for an additional 48 h in fresh culture medium and then pulsed for 16 h with ^3H-thymidine (1 μCi/well). Results are expressed as percent inhibition of ^3H-thymidine incorporation into cellular DNA in comparison to untreated cells.
Next, the ability of whether h6.3Fab×CD19 and h6.3Fab×EGFR BsAbs could increase the cytotoxicity of the drug-loaded nanoparticles (NPs) to antigen-positive cancer cells was investigated. Raji (CD19+) and A431 (EGFR+) cells were incubated with h6.3Fab×CD19 and h6.3Fab×EGFR, followed by the addition of graded concentrations of Doxisome (i.e., PEGylated liposomal doxorubicin).

[7] = system: mucin (TAG-72 tumor antigen); assay: ELISA antigen binding of hE11 BsAbs; conditions: FIG. 6A
Protocol: as §1
Binding of the BsAbs was detected by ELISA. Microtiter plates were first coated with antigens and then PEG2×TAG72, PEG2×DNS BsAbs or hCC49 (anti-TAG72) single chain antibody was added. After the plates were extensively washed to remove unbound antibodies, the remaining bound antibodies in each well were detected with HRP-conjugated secondary antibody. […] In sum, PEG2×TAG72 anti-PEG (hE11) BsAb of example 1.2 can bind both PEG and tumor antigens.

Chain of BSA (P02769 25-607): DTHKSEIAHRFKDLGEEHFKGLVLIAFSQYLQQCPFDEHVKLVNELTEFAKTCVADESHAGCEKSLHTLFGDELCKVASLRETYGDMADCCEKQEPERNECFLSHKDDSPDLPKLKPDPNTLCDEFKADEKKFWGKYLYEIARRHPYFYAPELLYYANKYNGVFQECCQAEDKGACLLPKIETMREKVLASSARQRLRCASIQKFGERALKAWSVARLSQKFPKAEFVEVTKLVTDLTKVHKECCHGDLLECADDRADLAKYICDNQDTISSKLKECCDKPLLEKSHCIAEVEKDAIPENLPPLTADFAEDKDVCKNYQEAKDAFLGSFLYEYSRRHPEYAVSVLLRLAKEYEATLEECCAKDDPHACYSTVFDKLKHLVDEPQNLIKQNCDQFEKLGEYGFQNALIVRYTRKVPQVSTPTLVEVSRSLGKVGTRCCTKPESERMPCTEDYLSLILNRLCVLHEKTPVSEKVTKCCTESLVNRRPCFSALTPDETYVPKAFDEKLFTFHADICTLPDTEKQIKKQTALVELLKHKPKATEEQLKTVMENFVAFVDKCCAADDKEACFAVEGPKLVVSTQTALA

B1: PEG×TAG72: monovalent BsAb: hE11 anti-PEG Fab fused to anti-TAG72 scFv (example 2.1) (protein)
light: DVVMTQSPLSLPVTLGQPASISCRSSKSIVHSNGNTYLEWFQQRPGQSPRRLIYKVSKRMSGVPDRFSGSGSGTDFTLKISRVEAEDVGVYYCSQGSHVPPTFGGGTKVEIKRTVAAPSVFIFPPSDEQLKSGTASVVCLLNNFYPREAKVQWKVDNALQSGNSQESVTEQDSKDSTYSLSSTLTLSKADYEKHKLYACEVTHQGLSSPVTKSFNRGEC
heavy: QVQLVQSGAEVKKPGASVKVSCKASGYTFTTYTMNWVRQAPGQGLEWMGYIIPSSGYVDYNQKFKGRVTMTRDTSTSTVYMELSSLRSEDTAVYYCVRSLDGYFWFAYWGQGTLVTVSSASTKGPSVFPLAPSSKSTSGGTAALGCLVKDYFPEPVTVSWNSGALTSGVHTFPAVLQSSGLYSLSSVVTVPSSSLGTQTYICNVNHKPSNTKVDKRVVDLVTVSSASTGGGSGQLGGGGSQVQLVQSGAEVKKPGASVKVSCKASGYTFTDHAIHWVRQAPGQCLEWMGYFSPGNDDFKYSQKFQGRVTITADKSASTAYMELSSLRSEDTAVYYCARSWIMQYWGQGTLVTVSSGGGGSGGGGSGGGGSDIVMTQSPDSLAVSLGERATINCKSSQSVLYSSNNKNYLAWYQQKPGQPPKLLIYWASTRESGVPDRFSGSGSGTDFTLTISSLQAEDVAVYYCQQYYSYPLTFGCGTKVEIKTRHHHHHH
binding of monovalent BsAb to Jurkat T cells [1]: bound to Jurkat T cells

binding to NH2-PEG10,000-NH2 [4]: bound to the NH2-PEG10,000-NH2 | binding to BSA [5]: not to the control BSA protein
B2: h6.3Fab×CD19: monovalent humanized anti-PEG h6.3 Fab fused to hBU12 anti-CD19 dsFv; SEQ ID NO 9, 10, 4, 11, 6 (protein)
chain 1: DIVMTQSPDSLAVSLGERATINCKSSQSVLYSSNQMNYLAWYQQKPGQPPKLLIYWASTRESGVPDRFSGSGSGTDFTLTISSLQAEDVAVYYCLQYLSSWTFGGGTKLEIKTYSLSSTLTLSKADYEKHKLYACEVTHQGLSSPVTKSFNRGEC
chain 2: QVQLVQSGSELKKPGASVKVSCKASGYTFKNYGMNWVRQAPGQGLEWMGWINTYTGQPIYANDFKGRFVFSLDTSVSTAYLQISSLKAEDTAVYYCARDWGPYWGQGTLVTVSSASTKGPSVFPLAPSSKSTSGGTAALGCLVKDYFPEPVTVSWNSGALTSGVHTFPAVLQSSGLYSLSSVVTVPSSSLGTQTYICNVNHKPSNTKVDKRVEPKSCDK
chain 3: VDLVTVSSASTGGGSGQLGGGGS
chain 4: QVQLQESGPGLVKPSQTLSLTCTVSGGSISTSGMGVGWIRQHPGKCLEWIGHIWWDDDKRYNPALKSRVTISVDTSKNQFSLKLSSVTAADTAVYYCARMELWSYYFDYWGQGTLVTVSSGGGGSGGGGSGGGGSEIVLTQSPATLSLSPGERATLSCSASSSVSYMHWYQQKPGQAPRLLIYDTSKLASGIPARFSGSGSGTDFTLTISSLEPEDVAVYYCFQGSVYPFTFGCGTKLEIKR
chain 5: TRHHHHHH
modifications: Humanized 6.3 VL-Ck; Humanized 6.3 VH-CH1; Peptide Linker; hBU12 dsFv; 6xHis Tag
uptake of PEG-Qdot655 into A431 cells (endocytic vesicles) [2]: failed to produce PEG-Qdot655 signals | directing PEGylated substance to Raji cells [3]: capable of directing PEGylated substance to Raji cells | effect on cytotoxicity of Doxisome to Raji cells [6]: enhanced cytotoxicity of Doxisome

binding to mucin [7]: bound to mucin
B3: hcc49 scFv: humanized single-chain antibody fragment against TAG-72 antigen (protein)
scFv: QVQLVQSGAEVKKPGASVKVSCKASGYTFTDHAIHWVRQAPGQCLEWMGYFSPGNDDFKYSQKFQGRVTITADKSASTAYMELSSLRSEDTAVYYCARSWIMQYWGQGTLVTVSSGGGGSGGGGSGGGGSDIVMTQSPDSLAVSLGERATINCKSSQSVLYSSNNKNYLAWYQQKPGQPPKLLIYWASTRESGVPDRFSGSGSGTDFTLTISSLQAEDVAVYYCQQYYSYPLTFGCGTKVEIK

Source: patent US10188742B2, “Bi-specific antibodies and uses thereof” (ACADEMIA SINICA, priority 2014, dated 2019)
